In patent US20240279358A1 (Alector, published 2024):
Blank lines part the entries; values can stand above or below the binder they belong to.

Columns and labels:
[1] = target: T1, human MerTK on M2c-differentiated human macrophages (human, UniProt Q12866 21-999); assay: cell-based or functional assay
T1 sequence: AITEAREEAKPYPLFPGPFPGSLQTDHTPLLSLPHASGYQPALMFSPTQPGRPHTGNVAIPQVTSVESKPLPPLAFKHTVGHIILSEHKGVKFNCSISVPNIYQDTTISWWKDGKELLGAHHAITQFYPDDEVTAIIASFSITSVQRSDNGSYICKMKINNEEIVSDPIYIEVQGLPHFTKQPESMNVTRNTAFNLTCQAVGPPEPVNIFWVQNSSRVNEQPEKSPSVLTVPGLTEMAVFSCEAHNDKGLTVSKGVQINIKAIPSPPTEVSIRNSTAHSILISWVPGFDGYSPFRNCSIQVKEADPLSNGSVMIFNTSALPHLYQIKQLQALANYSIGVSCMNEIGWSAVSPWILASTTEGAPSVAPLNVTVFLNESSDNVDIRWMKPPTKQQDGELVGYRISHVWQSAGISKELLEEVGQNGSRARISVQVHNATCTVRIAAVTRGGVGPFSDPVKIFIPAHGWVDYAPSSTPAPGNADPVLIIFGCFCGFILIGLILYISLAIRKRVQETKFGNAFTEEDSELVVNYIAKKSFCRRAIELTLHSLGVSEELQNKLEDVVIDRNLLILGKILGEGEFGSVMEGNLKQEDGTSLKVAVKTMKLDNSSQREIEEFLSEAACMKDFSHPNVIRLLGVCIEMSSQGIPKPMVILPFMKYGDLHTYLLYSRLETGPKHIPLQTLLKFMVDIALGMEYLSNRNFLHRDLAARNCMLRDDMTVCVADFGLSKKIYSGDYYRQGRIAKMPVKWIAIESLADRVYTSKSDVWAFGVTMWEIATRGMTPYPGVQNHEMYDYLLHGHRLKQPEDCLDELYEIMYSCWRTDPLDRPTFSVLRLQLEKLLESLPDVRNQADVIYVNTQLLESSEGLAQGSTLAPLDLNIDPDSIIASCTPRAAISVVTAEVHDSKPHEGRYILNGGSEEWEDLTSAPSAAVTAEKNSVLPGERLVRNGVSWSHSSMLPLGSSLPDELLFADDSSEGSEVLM

[2] = target: T1, human MerTK on M2c-differentiated human …; assay: cell-based or functional assay; remark: listed apart in the source
[3] = target: T1, human MerTK on M2c-differentiated human …; assay: cell-based or functional assay; remark: listed apart in the source
[4] = target: T2, recombinant murine MerTK extracellular domain (mouse, UniProt Q60805 19-497); assay: SPR (Carterra LSA), antibody immobilised on an HC30 chip, MerTK ECD as analyte
T2 construct: The entry starts with the native signal peptide; also called moMerTK; murine MerTK ECD; not shown: tag
T2 sequence: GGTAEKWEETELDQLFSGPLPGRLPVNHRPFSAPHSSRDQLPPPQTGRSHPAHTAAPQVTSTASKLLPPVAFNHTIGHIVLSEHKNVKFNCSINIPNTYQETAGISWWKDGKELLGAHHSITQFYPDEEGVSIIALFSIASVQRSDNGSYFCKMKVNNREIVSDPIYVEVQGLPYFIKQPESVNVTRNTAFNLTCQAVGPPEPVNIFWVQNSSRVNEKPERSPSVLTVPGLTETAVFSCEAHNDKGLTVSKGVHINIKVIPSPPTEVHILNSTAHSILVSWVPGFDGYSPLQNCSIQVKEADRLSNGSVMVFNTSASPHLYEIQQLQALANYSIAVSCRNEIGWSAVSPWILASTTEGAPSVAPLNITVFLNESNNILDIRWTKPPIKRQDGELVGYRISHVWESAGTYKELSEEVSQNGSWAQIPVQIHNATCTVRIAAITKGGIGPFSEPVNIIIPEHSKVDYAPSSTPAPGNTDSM

[5] = target: T3, human MerTK overexpressed on CHO cells (CHO-huMerTK OE) (human, UniProt Q12866 21-999); assay: FACS, Dylight650-conjugated antibody on CHO-huMerTK OE cells, MFI against Ab concentration
T3 construct: also called human MerTK overexpressing CHO cells; not shown: mGFP tag of the lentiviral ORF clone
T3 sequence: T1 sequence

[6] = target: T3, human MerTK overexpressed on CHO cells …; assay: FACS, Dylight650-conjugated antibody titrated on CHO-huMerTK OE cells; Kd fitted in Prism from MFI
From the text: (§1) Human macrophages were differentiated from human monocytes for 7 days in the presence of human M-CSF, resulting in M2c-differentiated human macrophages. After 7 days, the differentiated human macrophages were harvested (by scraping), resuspended in PBS, and plated on 96-well plates for use. CHO cells overexpressing human MerTK (CHO-huMerTK OE) or M2c-differentiated human macrophages were stained with Dylight650-conjugated monovalent anti-MerTK antibodies or bivalent anti-MerTK antibodies (i.e., anti-MerTK antibodies comprising two full-length heavy chains and two full-length light chains) for 30 min on ice. A range of antibody concentrations were used in these studies to obtain binding curves. […] Cells were fixed and then acquired on a BD FACS Canto II cytometer. The mean fluorescence intensity (MFI) was calculated using FlowJo software and Kd value was calculated using Prism software.

[7] = target: T4, recombinant human MerTK extracellular domain (human, UniProt Q12866 21-505); assay: SPR (Carterra LSA), antibody immobilised on an HC30 chip, MerTK ECD as analyte; estimate from a 1:1 fit
T4 construct: The entry starts with the native signal peptide, while the construct used a heterologous signal peptide; also called huMerTK; human MerTK ECD; not shown: tag
T4 sequence: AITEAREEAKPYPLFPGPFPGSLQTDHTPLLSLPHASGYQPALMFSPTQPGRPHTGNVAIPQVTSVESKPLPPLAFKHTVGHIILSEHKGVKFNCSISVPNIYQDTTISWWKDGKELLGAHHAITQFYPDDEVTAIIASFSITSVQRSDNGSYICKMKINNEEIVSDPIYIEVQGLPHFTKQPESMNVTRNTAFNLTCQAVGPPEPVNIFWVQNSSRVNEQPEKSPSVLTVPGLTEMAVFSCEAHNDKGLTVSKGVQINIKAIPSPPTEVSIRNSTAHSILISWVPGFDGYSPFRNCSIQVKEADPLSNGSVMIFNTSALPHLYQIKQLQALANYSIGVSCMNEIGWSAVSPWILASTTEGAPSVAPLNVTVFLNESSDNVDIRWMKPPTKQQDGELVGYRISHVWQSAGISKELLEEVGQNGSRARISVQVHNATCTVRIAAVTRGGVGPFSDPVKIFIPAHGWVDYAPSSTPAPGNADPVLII

[8] = target: T5, recombinant cynomolgus MerTK extracellular domain (cynomolgus, UniProt Q12866 21-505 (human entry)); assay: as above
T5 construct: The entry starts with the native signal peptide; also called cynoMerTK; cyno MerTK ECD; not shown: tag
T5 chain: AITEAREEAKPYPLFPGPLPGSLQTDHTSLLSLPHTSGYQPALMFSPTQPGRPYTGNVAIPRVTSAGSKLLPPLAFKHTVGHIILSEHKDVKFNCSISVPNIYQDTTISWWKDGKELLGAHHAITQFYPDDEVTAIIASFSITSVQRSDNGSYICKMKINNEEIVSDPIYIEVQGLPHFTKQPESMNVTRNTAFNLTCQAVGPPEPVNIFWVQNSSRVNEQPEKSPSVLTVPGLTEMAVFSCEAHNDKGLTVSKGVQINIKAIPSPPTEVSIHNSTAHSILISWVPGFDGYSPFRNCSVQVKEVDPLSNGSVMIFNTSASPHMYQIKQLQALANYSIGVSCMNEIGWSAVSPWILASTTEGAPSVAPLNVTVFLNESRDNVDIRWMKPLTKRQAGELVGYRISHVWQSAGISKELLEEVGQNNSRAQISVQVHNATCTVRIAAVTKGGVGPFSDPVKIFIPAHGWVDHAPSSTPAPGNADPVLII

[9] = target: T1, human MerTK on M2c-differentiated human …; assay: FACS, Dylight650-conjugated antibody titrated on M2c-differentiated human macrophages; Kd fitted in Prism from MFI
From the text: as §1

[10] = target: T3, human MerTK overexpressed on CHO cells …; assay: FACS on CHO-huMerTK OE cells; reference is monovalent MTK-33.11
From the text: as §1

[11] = target: T1, human MerTK on M2c-differentiated human …; assay: FACS on M2c-differentiated human macrophages; reference is monovalent MTK-33.11
From the text: as §1

[12] = target: T2, recombinant murine MerTK extracellular …; assay: SPR (Carterra LSA), antibody immobilised on an HC30 chip, MerTK ECD as analyte; estimate from a 1:1 fit
Method: Binding kinetics of monovalent anti-MerTK antibodies of the present disclosure to human, cyno, and murine MerTK were evaluated using a Carterra LSA instrument. […] A HC30 sensor chip (Carterra) was activated using the single channel flow cell with a 7-minute injection of a 1:1:1 mixture of 100 mM MES pH 5.5, 100 mM sulfo-NHS, 400 mM EDC (all reconstituted in MES pH 5.5; 100 μl of each mixed in vial immediately before running assay). After switching to the multi-channel array flow cell, the antibodies were injected over the activated chip in a 96-spot array for 15 minutes. A duplicate injection of the antibodies on a second block of the chip was spotted as before. The remaining unconjugated active groups on the chip were then blocked by injecting 1M Ethanolamine pH 8.5 (Carterra) for 7 minutes using the single channel flow cell.
After priming with running buffer (HBS-TE, Carterra) with 0.5 mg/ml BSA (Sigma), the immobilized anti-MerTK antibodies were tested for their ability to bind to several forms of recombinant MerTK extracellular domain, including that of human, cynomolgus, and mouse orthologs as described above. Estimates of affinity were generated by injecting each analyte over the entire antibody array using the single channel flow cell. […] Dissociation was followed for 300 seconds before regenerating after each injection with 2×30 seconds of 10 mM Glycine pH2.5. Three buffer blanks were run between each series (one species per series). After all concentrations of all three species of MerTK were injected, a duplicate set of injections was performed, so that each concentration for all three species was injected in widely spaced duplicates. Data were processed and analyzed using NextGenKIT high-throughput kinetics analysis software (Carterra).

Efferocytosis blocking Average IC50 [1]: 0.436 nM | Average fold change in pAKT activity in the absence of huGas6 [2]: 1.57 fold | Average pAKT IC50 (nM) in the presence of huGas6 [3]: 3.22 nM | binding result [4]: no binding | EC50 (read off the curve) [5]: ~20 nM | Kd [6]: 42.5 nM | Kd [7]: 50 nM | Kd [8]: 60 nM | Kd [9]: 51.9 nM
B1: bivalent anti-MerTK antibody MTK-16.2 LALAPS (antibody, human IgG1, kappa, L234A L235A, V domains shown)
VH: QVQLVQSGSELKKPGASVKVSCKASGYTFTNHGMNWVRQAPGQGLEWMGWINTYTGEPTYADDFKGRFVFSLDTSVSTAYLQISSLKAEDTAVYYCARKGVTAARYFDYWGQGTLVTVSS
VL: DIQMTQSPSSLSASVGDRVTITCRASQNVRTAVAWYQQKPGKAPKRLIYLASNRHTGVPSRFSGSGSGTEFTLTISNLQPEDFATYYCLQHWNYPLTFGGGTKLEIKR
notes: Two full-length heavy chains and two full-length light chains, human IgG1 LALAPS; Dylight650-conjugated in the FACS assay; also called MTK-16.2 bivalent LALAPS; MTK-16.2 full IgG

Efferocytosis blocking Average IC50 [1]: 37.9 nM | Average fold change in pAKT activity in the absence of huGas6 [2]: 1.22 fold | Average pAKT IC50 (nM) in the presence of huGas6 [3]: 15.3 nM | binding result [4]: no binding | Kd [6]: 40.5 nM | Kd [7]: 50 nM | Kd [8]: 60 nM | Kd [9]: 77.8 nM
B2: monovalent anti-MerTK antibody MTK-16.2 LALAPS (antibody, human IgG1, kappa, L234A L235A)
heavy: not shown
light: DIQMTQSPSSLSASVGDRVTITCRASQNVRTAVAWYQQKPGKAPKRLIYLASNRHTGVPSRFSGSGSGTEFTLTISNLQPEDFATYYCLQHWNYPLTFGGGTKLEIKRTVAAPSVFIFPPSDEQLKSGTASVVCLLNNFYPREAKVQWKVDNALQSGNSQESVTEQDSKDSTYSLSSTLTLSKADYEKHKVYACEVTHQGLSSPVTKSFNRGEC
chain: DKTHTCPPCPAPEAAGGPSVFLFPPKPKDTLMISRTPEVTCVVVDVSHEDPEVKFNWYVDGVEVHNAKTKPREEQYNSTYRVVSVLTVLHQDWLNGKEYKCKVSNKALPASIEKTISKAKGQPREPQVYTLPPSRDELTKNQVSLSCAVKGFYPSDIAVEWESNGQPENNYKTTPPVLDSDGSFFLVSKLTVDKSRWQQGNVFSCSVMHEALHNHYTQKSLSLSPGK
notes: One-armed antibody, human IgG1 LALAPS; Dylight650-conjugated in the FACS assay; also called MTK-16.2 monovalent LALAPS; MTK-16.2 monoarm

Efferocytosis blocking Average IC50 [1]: 0.341 nM | Average fold change in pAKT activity in the absence of huGas6 [2]: 1.41 fold | Average pAKT IC50 (nM) in the presence of huGas6 [3]: 1.25 nM | fold higher affinity than monovalent MTK-33.11 [10]: ~10 fold | fold higher affinity than monovalent MTK-33.11 [11]: ~5 fold | EC50 (read off the curve) [5]: ~4 nM | Kd [6]: 0.439 nM | Kd [12]: 50 nM | Kd [7]: 2 nM | Kd [8]: 2 nM | Kd [9]: 2 nM
B3: bivalent anti-MerTK antibody MTK-33.11 LALAPS (antibody, human IgG1, kappa, L234A L235A, V domains shown)
VH: QVQLVQSGAEVKKPGASVKVSCKASGYTFTSYWMHWVRQAPGQGLEWIGVIDPSDNYINYNQKFQGRVTMTRDTSTSTVYMELSSLRSEDTAVYYCAREAWTRGYFDYWGQGTLVTVSS
VL: DIQMTQSPSSLSASVGDRVTITCQASRSVRNTVAWYQQKPGKAPKLLIYYASNRYTGVPSRFSGSGSGTDFTFTISSLQPEDIATYYCQQDYRSPFTFGQGTKLEIKR
notes: Two full-length heavy chains and two full-length light chains, human IgG1 LALAPS; Dylight650-conjugated in the FACS assay; also called MTK-33.11 bivalent LALAPS; MTK-33.11 full IgG
